Data from patent US6380375B1, “DNA encoding monkey gonadotropin releasing hormone receptor” (Merck & Co., Inc., priority 1999, dated 2002).

Columns and labels:
[1] = target: monkey gonadotropin-releasing hormone (GnRH) receptor (monkey); test: whole cell radioligand binding, eight of the 96 neoR CHO-K1 clones screened
[2] = target: monkey gonadotropin-releasing hormone (GnRH) receptor (monkey); test: whole cell radioligand binding, best CHO-K1 clone expressing the monkey GnRH receptor
[3] = target: monkey gonadotropin-releasing hormone (GnRH) receptor (monkey); test: cell-based or functional assay
monkey GnRH receptor [4] = test: Phosphoinositide (PI) turnover assay in CHO-K1 cells stably expressing the monkey GnRH receptor; assay type: cell-based; details: monkey GnRHR-CHO-K1 cells, 37° C., 1 hour, FIG. 7; read-out: EC50 of GnRH-stimulated PI turnover
Description: The ORF of the monkey GnRH receptor was subcloned into a polycistronic expression vector pIRES1.neo (Clontech Laboratories, Palo Alto, Calif.) to generate cells that stably express these receptors. In this vector, the cloned receptor cDNA and the neo gene were transcribed into one mRNA. The plasmid DNA of pIRES1.neo-mkGnRHR was transfected into CHO-K1 cells using the method of lipofectin. Transfection was carried out for overnight and the cells were split 48 hours later. G418 at 1 mg/ml was added 24 hours after splitting, and its concentration was increased to 2 mg/ml in 2-3 days. After 10 days selection by G418, colonies were picked and transferred to 24-well plates. The monkey GnRH receptor expression clones were screened by the whole cell binding assay using a radiolabeled peptide agonist of GnRH, 5-(^125Iodo-Tyr)-Buserelin (Woods Assay, Portland, Oreg.). […] After single cell isolation, the membrane from this clone was prepared, and the membrane binding assay was performed using ^125I-buserelin. […] The GnRH-stimulated PI turnover was also performed.
CHO-K1 cells stably expressing the monkey GnRH receptor are functionally coupled to phospholipase C. […] The eluate was then counted in a scintillation counter.

monkey GnRH receptor [5] = test: Aequorin bioluminescence assay in CHO-K1 cells stably co-expressing the monkey GnRH receptor and apo-aequorin; assay type: cell-based; details: CHO-K1 cells co-expressing monkey GnRHR and apo-aequorin; P1/(P1+P2) response
Description: To construct this dual stable cell line, the 600 bp aeq gene was cut out by EcoRI and KpnI from pcDNA3.aeq, and inserted into pIRES1hyg (Clontech Laboratories, Palo Alto, Calif.) at BamHI that was blunt-ended. The positive clones were identified by colony-hybridization using the probe of aeq. The new construct that contained aeq and hyg was transfected into monkey GnRHR-CHO-K1 cells (as Example 5). The transfectants were selected by 600 μg/ml hygromycin (Boehringer Mannheim, Indianapolis, Ind.) for 10 days, and 480 hyg^r colonies were transferred into 96-well plates. These clones were assayed for aequorin by the aequorin bioluminescence assay as described in Example 7, and many positive clones were identified. […] This clone was single cell isolated, and used for the functional evaluation of the monkey GnRH receptor by the aequorin assay.
The aequorin assay has been widely used to monitor the changes in the cytosolic Ca^2+ concentration caused by the activation of the G-protein coupled receptors. […] The plate was read immediately in a Bioluminomitor (Lumino Skan RS) for 30 seconds. […] The remaining unreacted aequorin was determined by lysing the cells with 0.1% Triton X-100 (Sigma, St. Louis, Mo.). […] The percentage of aequorin which responded to GnRH challenge was calculated as P1/(P1+P2). […]

specific binding, fold above the non-specific binding [1] [fold] | fold above the background [2] [fold] | specific binding activity [2] [cpm] | GnRH-stimulated PI turnover, EC50 [3] [nM] | aequorin bioluminescence assay, AUC for P1 [3] | aequorin bioluminescence assay, EC50 of GnRH [3] [nM] | aequorin bioluminescence assay, P1/(P1+P2) ratio [3] [%] | EC50 (monkey GnRH receptor [4]) [nM] | EC50 (monkey GnRH receptor [5]) [nM] | Molecule
3 | 5 | 645 |  |  |  |  |  |  | 5-(125Iodo-Tyr)-Buserelin (peptide)
 |  |  | 0.43 | 1290 | 2 | 71 | 0.43 | 2 | Gonadotropin-releasing hormone (neuronal decapeptide hormone released from hypothalamus; obtained from a vendor and used as agonist) peptide: QHWSYGLRPGGKRDAENLIDSFQEIVKEVGQLAETQRFECTTHQPRSPLRDLKGALESLIEEETGQKKI
